Data: patent US5846743A, “Polyphoshoinositide binding peptides for intracellular drug delivery” (Brigham and Women's Hospital, Inc., priority 1996, dated 1998)
Where a SMILES comes first, the peptide text is derived from it. The star is where a group is joined. RhodamineB = CCN(CC)c1ccc2c(-c3ccccc3C(=O)*)c3ccc(=[N+](CC)CC)cc-3oc2c1

Tested on: cells exposed to conjugate in culture medium, regardless of the cell type

CCN(CC)c1ccc2c(-c3ccccc3C(=O)N[C@@H](CCC(N)=O)C(=O)N[C@@H](CCCNC(=N)N)C(=O)N[C@@H](CC(C)C)C(=O)N[C@@H](Cc3ccccc3)C(=O)N[C@@H](CCC(N)=O)C(=O)N[C@H](C(=O)N[C@@H](CCCCN)C(=O)NCC(=O)N[C@@H](CCCNC(=N)N)C(=O)N[C@@H](CCCNC(=N)N)C(=O)O)C(C)C)c3ccc(=[N+](CC)CC)cc-3oc2c1 [rhodamine-Sequence I.D. No. 2] (RhodamineB-QRLFQVKGRR-OH)
intracellular free calcium increase caused by conjugate: did not result in uptake of free fluorescein or induce a large increase in intracellular free calcium
